The target in assay [1] is GTP-γS-tubulin-dimer (porcine brain tubulin) (porcine) (UniProt P02550). As to the kind of experiment: SEC; size-exclusion chromatography at 4 °C; tubulin with the GTP analog GTP-γS; 1:1 mixture of each 1 mM (so in the source) CP525 and tubulin-dimer; fractions checked by SDS-PAGE. On the technique in general: In gel filtration, larger molecules generally elute earlier.
Assay [2] addresses GTP-γS-tubulin-dimer (porcine brain tubulin), P02550;Q767L7. As to the kind of experiment: DLS. Particulars: room temperature; 1:1 mixture.
For assay [3] the target is unchanged. Put plainly: SEC-MALS.

This note sets out measurements from article PMC5587665.

With “CP525 (7 x His-tag and human CRMP2 residues 1-525) (from UniProt Q16555 1-525) (domain or fragment)”, the stoichiometry N (CP525:tubulin-dimer) in assay [1] is 1.
Regarding “CP525 (7 x His-tag and human CRMP2 residues 1-525) (from UniProt Q16555) K483A; R485A; R487A”, in assay [2], the other: %Polyd (polydispersity of the mixture) was determined as 64.9%, the other: MW-R (of the mixture) worked out at 538 kDa and the other: Rh (hydrodynamic radius of the mixture) turned out to be 8.8 nm. For the same substance, in assay [3], the other: Molar mass of the mixture, Peak 1 amounted to 95.9 kDa and the other: Molar mass of the mixture, Peak 2 was 86.2 kDa.
For “CP525 (7 x His-tag and human CRMP2 residues 1-525) (from UniProt Q16555) T246A; N247A”, in that order: 52%, 524 kDa, 8.6 nm, 214 kDa and 113 kDa.
